Test [1] has as its target T1, human CD33 extracellular domain with 6xHis-tag (human, UniProt P20138 18-259).
T1 construct: Bought (R&D Systems, Acro Biosystems); also called huCD33-His; huCD33(ECD)-His
The test can be described thus: BLI, huCD33-His on anti-penta-His sensor, no competitor. As to the method: Epitope Binning. Epitope binning was carried out by a BLI competition experiment using an Octet Red96e. Human CD33-His was captured by an anti-penta-His biosensor. A 4×4 matrix with TDI-Y-006, TDI-Y-007, 1J19 and H195 was tested. A reference biosensor was used to determine the overall capture level for each antibody. After pre-binding the antibodies at saturation levels, the biosensors were dipped into antibody solutions to assess competition. […] However, when TDI-Y-006 was pre-bound, binding of TDI-Y-007 was blocked. […] Similarly, 1J19 and H195 have epitopes that partially overlap. No competition was observed between antibodies binding to the membrane-proximal IgC2 domain (TDI-Y-006 and TDI-Y-007) and antibodies binding to the membrane-distal IgV domain (1J19 and H195).
Background: Biolayer interferometry detects binding as a change in optical thickness at a sensor tip.

Test [2] deals with T2, human CD33, full length, on cells (human, UniProt P20138 18-364).
T2 construct: NIH-3T3 cells stably overexpressing full-length human CD33, or AML lines U937 and Set2 with endogenous CD33; the cell line is named under assay; also called 3T3-huCD33; 3T3-CD33
T2 sequence (P20138 18-364): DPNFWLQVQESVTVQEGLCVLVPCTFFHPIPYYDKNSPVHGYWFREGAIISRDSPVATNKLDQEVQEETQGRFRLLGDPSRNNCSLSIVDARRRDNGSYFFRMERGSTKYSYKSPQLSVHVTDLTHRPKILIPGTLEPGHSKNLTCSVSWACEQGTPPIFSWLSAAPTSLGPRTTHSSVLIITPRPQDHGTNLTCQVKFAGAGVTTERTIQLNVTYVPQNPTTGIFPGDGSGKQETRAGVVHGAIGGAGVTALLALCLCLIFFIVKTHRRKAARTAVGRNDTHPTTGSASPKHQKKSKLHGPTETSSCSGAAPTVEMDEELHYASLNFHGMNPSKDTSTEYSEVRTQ
The experiment in a line: flow cytometry on 3T3 cells overexpressing human CD33, antibody titration, AlexaFluor 647 goat anti-human F(ab')2 detection, MFI ratio to secondary only. As to the method:
(§1) Binding to CD33 on Cells. To assess the binding of TDI-Y-006, TDI-Y-007 and 1J19 to cell surface-bound CD33, 3T3 cells overexpressing CD33, as well as the U937 AML cell line, which expresses endogenous CD33, were used. U937 CD33KO or NALM6 were included as negative controls. Briefly, NALM6, U937 CD33+ and KO cells were blocked with human IgG Fc for 20 minutes on ice. The recombinant antibodies were then serially diluted starting at 100 μg/mL concentration and added for 30 minutes on ice. AlexaFluor 647-conjugated goat anti-human F(ab′)2 was added to cells for 30 minutes on ice, washed and analyzed by flow cytometry, normalized to secondary only staining (MFI ratio). EC50 values were determined by non-linear regression.
For orientation: In flow cytometry, cells or beads pass a laser one at a time.

Test [3] has as its target T2, human CD33, full length, on cells. The experiment in a line: flow cytometry, U937 cells. As to the method:
as §1

The target is the same in test [4]. The experiment in a line: flow cytometry, 3T3-CD33 cells. As to the method:
as §1

In test [5] the target is T1, human CD33 extracellular domain with …. The experiment in a line: BLI (Octet Red96e), antibody on anti-huFc sensor, huCD33-His as analyte, 1:1 fit. As to the method:
(§2) The binding affinity to human CD33 protein was measured by biolayer interferometry (BLI) using an Octet Red96e. All experiments were carried out using kinetic buffer (PBS pH 7.4, 0.01% BSA, 0.002% Tween-20). The antibodies were captured by an anti-huFc biosensor and a 7-point, 2-fold dilution series of huCD33-His was used as analyte. The data was processed by double reference subtraction, and response curves were globally fit to a 1:1 Langmuir binding model. […] The binding affinities are similar to the H195 reference antibody.

For test [6], the target named is T2, human CD33, full length, on cells. The test can be described thus: summary table; flow cytometry, AML cell line U937; U937 AML cell line (endogenous CD33). As to the method: as §1
For test [7] the target is unchanged. The experiment in a line: summary table; flow cytometry, 3T3 cells overexpressing CD33; 3T3 cells overexpressing CD33. As to the method: as §1
For test [8], the target named is T3, mouse CD33 extracellular domain with 6xHis-tag (mouse, UniProt Q63994 18-240).
T3 construct: range 18-240; also called moCD33-His; moCD33(ECD)-His
T3 sequence: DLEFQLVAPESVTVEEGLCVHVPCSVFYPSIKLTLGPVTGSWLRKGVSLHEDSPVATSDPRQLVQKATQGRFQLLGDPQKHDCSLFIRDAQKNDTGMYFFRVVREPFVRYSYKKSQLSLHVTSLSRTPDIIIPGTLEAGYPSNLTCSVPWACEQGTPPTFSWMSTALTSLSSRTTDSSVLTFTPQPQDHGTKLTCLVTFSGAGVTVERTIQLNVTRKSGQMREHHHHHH
The test can be described thus: ELISA: CD33-His protein at 5 µg/mL captured on Ni-NTA plate, antibody at 10 µg/mL in triplicate, HRP anti-human Fc detection, OD450. As to the method:
Binding to Recombinant CD33 Protein. Binding to CD33 protein was carried out by ELISA using human CD33-His (full-length or IgC2 domain), cynomolgus monkey CD33-His and mouse CD33-His. Recombinant proteins at 5 μg/mL were captured by pre-blocked Ni-NTA plates. Candidate antibodies were added at 10 μg/mL in triplicate and detected using horseradish peroxidase (HRP)-conjugated anti-human Fc antibody. […] No binding was detected to cynomolgus or mouse CD33 for either TDI-Y-006 and TDI-Y-007. 1J19 and H195 only bound to full-length human CD33 ECD but not to IgC2 as these antibodies target the IgV domain.

In test [9] the target is T2, human CD33, full length, on cells. The experiment in a line: flow cytometry, purified mAb, U937 cells.
Test [10] concerns the target T1, human CD33 extracellular domain with …. The experiment in a line: ELISA, hybridoma supernatant.
Test [11] deals with T4, human CD33 IgC2 type domain with 6xHis-tag (human, UniProt P20138 140-259).
T4 construct: Produced at LakePharma; also called huCD33IgC2-His; CD33 IgC2-6xHis
T4 sequence (P20138 other isoform, or with tags, fused parts or gaps): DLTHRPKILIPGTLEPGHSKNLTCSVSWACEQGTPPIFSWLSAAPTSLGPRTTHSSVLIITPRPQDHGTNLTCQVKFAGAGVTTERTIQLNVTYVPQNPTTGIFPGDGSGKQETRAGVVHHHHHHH
The test can be described thus: ELISA, hybridoma supernatant.

In test [12] the target is T2, human CD33, full length, on cells. The test can be described thus: flow cytometry, purified mAb, Set2 cells.
For test [13] the target is unchanged. The test can be described thus: flow cytometry, hybridoma supernatant, 3T3-huCD33 cells.
Test [14] concerns the target T5, human CD33 IgC2 domain only, on NIH-3T3 cells (human, UniProt P20138 140-364).
T5 construct: the whole entry is named here; also called 3T3-huCD33IgC2; 3T3 CD33-IgC2
The experiment in a line: flow cytometry, hybridoma supernatant, 3T3-huCD33IgC2 cells.

The target of test [15] is T2, human CD33, full length, on cells. The test can be described thus: flow cytometry, hybridoma supernatant, U937 cells.
Test [16] deals with T3, mouse CD33 extracellular domain with …. The experiment in a line: ELISA on recombinant moCD33-His, purified hybridoma subclone antibody, readout RLU; antibody concentration not given. In general terms: In an ELISA, binding on a coated surface is turned into a signal by an enzyme label.
The target of test [17] is T1, human CD33 extracellular domain with …. The test can be described thus: summary table; binding affinity to soluble CD33 (BLI). As to the method:
as §2

Test [18] has as its target T2, human CD33, full length, on cells. The test can be described thus: summary table; flow cytometry, 3T3 cells overexpressing CD33. As to the method: as §1

Positions count from the first letter of the chain named.

T5 sequence (P20138 140-364 limits assumed): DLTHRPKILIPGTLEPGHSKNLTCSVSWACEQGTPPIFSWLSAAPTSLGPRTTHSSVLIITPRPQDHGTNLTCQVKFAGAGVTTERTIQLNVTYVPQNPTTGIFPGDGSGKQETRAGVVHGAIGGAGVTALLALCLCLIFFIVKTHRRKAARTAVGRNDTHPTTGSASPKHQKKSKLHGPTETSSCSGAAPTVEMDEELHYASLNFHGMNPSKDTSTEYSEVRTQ
T1 sequence (P20138 other isoform, or with tags, fused parts or gaps): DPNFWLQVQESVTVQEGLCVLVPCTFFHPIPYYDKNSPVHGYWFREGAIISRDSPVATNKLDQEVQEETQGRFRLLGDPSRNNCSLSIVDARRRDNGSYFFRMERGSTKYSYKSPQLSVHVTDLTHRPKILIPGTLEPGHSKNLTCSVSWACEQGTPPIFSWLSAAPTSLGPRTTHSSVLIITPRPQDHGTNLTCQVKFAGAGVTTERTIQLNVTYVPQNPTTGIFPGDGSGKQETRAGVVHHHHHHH

B1: 1J19 (recombinant, human IgG1 constant region) (antibody, V domains shown)
VH: QVQLQQSGPGLVKPSQTLSLTCAISGDSVSSNSAAWNWIRQSPSRGLEWLGRTYFRSKWYNVYAVSVKSRITINPDTSKNQFSLQLNSVTPEDTAVYYCASEGGSYYDHWGQGTLVTVSS
VL: DIQMTQSPSSVSASVGDRVTITCRASQGISNWLTWYQQKPGKAPKLLIYAASSLQSGVPSRFSGSGSGTDFTLTISSLQPEDFATYYCQQADSFPFTFGPGTKVDIK
The EC50 (read off the curve) is the midpoint of the concentration-response curve. Usually EC50 stands for the concentration giving half of the maximal effect. Read a high EC50 as weaker potency. As a reminder, the Kd is the equilibrium constant for the complex coming apart. The low end stands for a tighter complex, the high end for a looser complex. Broadly, the kon is the second-order rate constant of association. Read a high kon as fast association. In the case of B1, the “BLI total binding capacity (Reference Biosensor)” value (“BLI total binding capacity” for short) in [1] was 0.432. Besides, the “EC50 (read off the curve)” value in test [2] is approximately 4 nM. In test [3], it took 2.16 nM to reach a half-maximal effect (EC50). This molecule also registered an EC50 in test [4] of 6.54 nM. In [5], this molecule registered a Kd of 1.1 nM and a kon of 266000 M⁻¹ s⁻¹.

B2: TDI-Y-007 (antibody, V domains shown)
VH: EVHLLESGGGLVQPGGSLRLSCAASGFIFSSNAMSWVRQAPGKGLEWVSAISGYGGNTYYADSVKGRFTISRDNSKNTLYLQMNSLRAEDTAVYYCAKWGTYIVGATGDYWGQGTLVTVSS
VL: QSALTQPPSASGSPGQSVTISCTGTSNDVGGYNYVSWYQQHPGKAPKLLIYEVSKRPSGVPDRFSGSQSGNTASLTVSGLQAEDEADYYCSSYAGSNNWVFGGGTKLTVL
notes: also called 4B2 (recombinant, human IgG1 constant region)
As usually defined, the koff is a measure of how fast the partners let go of each other. Higher therefore signals fast dissociation. Consider B2, for which the concentration giving a half-maximal response (EC50) came out at 45 nM in [6], 17 nM in test [7], 44.9 nM in [3] and 17 nM in [4]. Also, the “BLI total binding capacity” value in test [1] came out at 0.299. In addition, in test [2], the “EC50 (read off the curve)” value is approximately 40 nM. Also, binding in test [5] was put at a Kd of 1.29 nM. Further, the koff in test [5] came to 0.000597 s⁻¹. For the same molecule, in test [5], the on-rate constant (kon) turned out to be 464000 M⁻¹ s⁻¹. In addition, the binding result in test [8] was “no binding (tested: 10 µg/mL)”.

B3: 4-B2 (hybridoma antibody) (antibody, V domains shown)
VH: B2 VH
VL: B2 VL
notes: AlivaMab mouse hybridoma antibody; also called 4-B2-A
As for B3, the EC50 stood at 40.5 nM in test [9] and 28.5 nM in test [12]. Besides, the RLU in test [10] was 392000 RLU; in test [11], 101000 RLU. Further, the MFI in [13] amounted to 2.82e+06 MFI; in test [14] it was 358000 MFI; in test [15], 152000 MFI. Moreover, the binding result in test [16] was “no binding”.

B4: TDI-Y-006 (antibody, V domains shown)
VH: EVQLLESGGGLVQPGGSLRLSCAASGFTFSTYAMSWVRQAPGKGLEWVSAISGRGGSTYYTDSVKGRFTISRDNSKNTVSLQMNSLRAEDTAVYYCAGRGDYYYYYGMDVWGQGTTVTVSA
VL: DIVMTQSPLSSPVTLGQPASFSCRSSQSLVYSDGNTYLSWLQQRPGQPPRLLIYKISNRFSGVPDRFSGSGAGTDFTLKISRVEAEDVGVYYCMQSTQFPHTFGQGTKLEIK
notes: also called 3P14 (recombinant, human IgG1 constant region)
In the case of B4, the EC50 was determined as 8.5 nM in test [6], 5 nM in [18], 8.5 nM in [3] and 5 nM in test [4]. Moreover, in [1], the “BLI total binding capacity” value turned out to be 0.86. For the same molecule, the half-maximal effective concentration (EC50 (read off the curve)) in [2] is approximately 8 nM. The figures for the Kd in test [17] and in test [5] were 1.2 nM and 1.21 nM, respectively. Also, the koff in test [17] is 0.000359 s⁻¹. For the same molecule, the kon in [17] and in [5] was 296000 M⁻¹ s⁻¹ throughout. Moreover, in test [8], the binding result was “no binding (tested: 10 µg/mL)”.

B5: 3-P14 (hybridoma antibody) (antibody, V domains shown)
VH: B4 VH
VL: B4 VL
notes: AlivaMab mouse hybridoma antibody; also called 3-P14-A
Turning to B5, the EC50 in test [9] came out at 3.27 nM; in test [12], 2.4 nM. Further, the figures for the RLU in [10] and in test [11] were 546000 RLU and 107000 RLU, respectively. Further, the MFI in test [13] turned out to be 3.06e+06 MFI; in test [14] it was 544000 MFI; in test [15], 248000 MFI.

B6: 4-P3 (antibody, V domains shown)
VH: B4 VH
VL: B4 VL with F21I
notes: AlivaMab mouse hybridoma antibody; also called 4-P3-A
B6: the EC50 came out at 2.5 nM in test [9] and 2 nM in [12]. In addition, in [10], the RLU amounted to 484000 RLU. Also, the MFI in test [13] came to 1.32e+06 MFI; in test [14], 391000 MFI; in test [15], 188000 MFI. Moreover, the binding result in [16] was “no binding”.

The record behind these values is patent US20240262910A1 (Memorial Sloan Kettering, published 2024).
